Laboratory results from US20140120095A1 (Boehringer Ingelheim, published 2014).

T1: human DLL1 (human, UniProt O00548 18-545, limits assumed)
T1 construct: also called hDLL1
T1 sequence (looked up): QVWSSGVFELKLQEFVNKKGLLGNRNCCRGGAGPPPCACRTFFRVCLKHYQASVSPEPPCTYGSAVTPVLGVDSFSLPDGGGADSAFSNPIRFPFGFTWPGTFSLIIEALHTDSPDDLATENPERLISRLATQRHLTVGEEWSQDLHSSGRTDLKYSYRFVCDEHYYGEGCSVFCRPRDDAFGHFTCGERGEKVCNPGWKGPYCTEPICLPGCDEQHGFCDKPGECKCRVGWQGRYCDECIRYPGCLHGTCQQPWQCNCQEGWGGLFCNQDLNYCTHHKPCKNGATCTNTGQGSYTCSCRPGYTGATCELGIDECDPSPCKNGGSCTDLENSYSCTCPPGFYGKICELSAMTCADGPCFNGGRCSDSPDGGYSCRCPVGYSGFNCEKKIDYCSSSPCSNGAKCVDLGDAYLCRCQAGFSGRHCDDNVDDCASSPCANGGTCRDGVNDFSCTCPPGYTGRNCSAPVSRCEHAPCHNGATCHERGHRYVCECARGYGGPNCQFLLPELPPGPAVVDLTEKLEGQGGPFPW


What was measured:
recombinant human DLL4 = molecular target: T2, recombinant human DLL4 (human, UniProt Q9NR61 25-522); assay: competition AlphaScreen, biot-hDLL4/hNotch1-Fc
T2 construct: also called rhDLL4; hDLL4
Experimental: In brief, 1 nM biotinylated human DII4 is captured on streptavidin-coated donor beads (20 μg/mL), while 0.4 nM of the receptor human Notch1 (as a Fc fusion protein) is captured on anti-human Fc VHH-coated acceptor beads (20 μg/mL). Both loaded beads are incubated together with a dilution range of the competing VHH (FIG. 4 A-E).

[1] = molecular target: T3, human DLL4 overexpressed on cells (human, UniProt Q9NR61 27-685); assay: FACS titration on HEK293-hDLL4 cells, MCF
T3 construct: full length human DLL4 on CHO or HEK293 cells; also called CHO-hDLL4; CHO-hDII4
Experimental: (§1) In order to determine the cynomologus cross-reactivity of the VHHs, a FACS binding experiment is performed. Cynomolgus DII4 expressing HEK293 cells (transient or stable transfection) are used for a titration binding experiment of the VHHs. After a 30 minutes incubation on ice, all samples are washed and detection is performed by applying anti-c-myc˜Alexa647 (Santa Cruz Biotechnology, Santa Cruz, Calif., USA). Human and mouse DII4 overexpressing HEK293 cells are taken as reference. The mean MCF value is determined on the FACS Array and used for calculation of the EC₅₀ value (see FIG. 9 A-E).

[2] = molecular target: T4, mouse DLL4 overexpressed on cells (mouse, UniProt Q9JI71 27-686); assay: FACS titration on HEK293-mDLL4 cells, MCF
T4 construct: whole, on cells; also called CHO-mDLL4; CHO-mDII4
Experimental: as §1

[3] = molecular target: T4, mouse DLL4 overexpressed on cells; assay: FMAT, labelled hNotch1-Fc on CHO-mDLL4, periplasmic extract
Excerpt: All calculations are based on the FL1_total signal which comprises the average of the fluorescence per well times the number of counts per well.

human DLL1 = molecular target: T1, human DLL1; assay: binding ELISA on coated recombinant human DLL1, OD 405 nm
Method in brief: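 Plates coated overnight at 4° C with 1 μg/mL ligand, blocked with 1% casein in PBS. VHH dilution series applied; bound VHH detected via mouse anti-myc then anti-mouse-AP conjugate.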

[4] = molecular target: T5, human DLL4 expressed on cells (CHO-hDLL4; HEK293-hDLL4) (human, UniProt Q9NR61 27-685); assay: competition FMAT, labelled hNotch1-Fc on CHO-hDLL4 cells
T5 construct: full length human DLL4 overexpressed on CHO cells (FMAT, FACS) or HEK293 cells (reporter assay)

[5] = molecular target: T6, recombinant human DLL4 (C-terminally His-tagged extracellular domain, R&D Systems) (human, UniProt Q9NR61 25-522, biotinylated in the competition ELISA); assay: binding ELISA on recombinant human DLL4, OD 450 nm
T6 construct: also called rhDLL4; hDLL4

[6] = molecular target: T6, recombinant human DLL4 (C-terminally …); assay: ProteOn off-rate screen, periplasmic extract, coated human DLL4
Experimental: (§2) In a first cycle, amino acid substitutions are introduced randomly in both framework (FW) and complementary determining regions (CDR) using the error-prone PCR method. […] After a polish step, PCR products are inserted via unique restriction sites into a vector designed to facilitate phage display of the VHH library. Consecutive rounds of in-solution selections are performed using decreasing concentrations of biotinylated recombinant human DLL4 (biot-rhDLL4) and trypsin elutions. Affinity-driven selections in a third round using cold rhDLL4 (at least 100× excess over biot-rhDLL4) are also performed. No selections on murine DLL4 are included as (conservation of) cross-reactivity is assessed at the screening level. Individual mutants are produced as recombinant protein using an expression vector derived from pUC119, which contains the LacZ promoter, a resistance gene for ampicillin, a multiple cloning site and an ompA leader sequence (pAX50). E. coliTG1 cells are transformed with the expression vector library and plated on agar plates (LB+Amp+2% glucose). Single colonies are picked from the agar plates and grown in 1 mL 96-deep-well plates. VHH expression is induced by adding IPTG (1 mM). Periplasmic extracts (in a volume of ˜80 uL) are prepared according to standard methods and screened for binding to recombinant human and mouse DII4 in a ProteOn (BioRad, Hercules, Calif., USA) off-rate assay. In brief, a GLC ProteOn Sensor chip is coated with recombinant human DII4 on the “ligand channels” L2 and L4 (with L1/L3 as reference channel), while “ligand channels” […] is coated with mouse DII4. Periplasmic extract of affinity-matured clones is diluted 1/10 and injected across the “analyte channels” A1-A6. An average off-rate is calculated of the wild type clones present in the plate and served as a reference to calculate off-rate improvements.

[7] = molecular target: T7, recombinant mouse DLL4 (C-terminally His-tagged extracellular domain, R&D Systems) (mouse, UniProt Q9JI71 27-532); assay: ProteOn off-rate screen, periplasmic extract, coated mouse DLL4
T7 construct: extracellular domain; also called rmDLL4; mDLL4
Experimental: as §2

T7 sequence (Q9JI71 27-532): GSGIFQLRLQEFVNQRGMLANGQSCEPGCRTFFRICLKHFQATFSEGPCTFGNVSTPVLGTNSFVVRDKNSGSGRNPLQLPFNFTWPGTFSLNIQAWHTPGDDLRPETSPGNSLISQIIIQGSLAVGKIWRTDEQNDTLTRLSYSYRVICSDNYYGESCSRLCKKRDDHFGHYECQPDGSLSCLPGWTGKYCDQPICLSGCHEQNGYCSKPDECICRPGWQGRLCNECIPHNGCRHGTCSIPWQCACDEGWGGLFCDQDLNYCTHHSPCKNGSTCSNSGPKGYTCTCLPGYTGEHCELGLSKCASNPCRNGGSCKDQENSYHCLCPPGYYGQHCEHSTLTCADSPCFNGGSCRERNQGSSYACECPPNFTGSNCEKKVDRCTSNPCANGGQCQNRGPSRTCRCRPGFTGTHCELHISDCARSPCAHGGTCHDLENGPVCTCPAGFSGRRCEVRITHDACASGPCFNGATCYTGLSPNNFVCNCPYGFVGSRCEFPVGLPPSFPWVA
T4 sequence (Q9JI71 27-686): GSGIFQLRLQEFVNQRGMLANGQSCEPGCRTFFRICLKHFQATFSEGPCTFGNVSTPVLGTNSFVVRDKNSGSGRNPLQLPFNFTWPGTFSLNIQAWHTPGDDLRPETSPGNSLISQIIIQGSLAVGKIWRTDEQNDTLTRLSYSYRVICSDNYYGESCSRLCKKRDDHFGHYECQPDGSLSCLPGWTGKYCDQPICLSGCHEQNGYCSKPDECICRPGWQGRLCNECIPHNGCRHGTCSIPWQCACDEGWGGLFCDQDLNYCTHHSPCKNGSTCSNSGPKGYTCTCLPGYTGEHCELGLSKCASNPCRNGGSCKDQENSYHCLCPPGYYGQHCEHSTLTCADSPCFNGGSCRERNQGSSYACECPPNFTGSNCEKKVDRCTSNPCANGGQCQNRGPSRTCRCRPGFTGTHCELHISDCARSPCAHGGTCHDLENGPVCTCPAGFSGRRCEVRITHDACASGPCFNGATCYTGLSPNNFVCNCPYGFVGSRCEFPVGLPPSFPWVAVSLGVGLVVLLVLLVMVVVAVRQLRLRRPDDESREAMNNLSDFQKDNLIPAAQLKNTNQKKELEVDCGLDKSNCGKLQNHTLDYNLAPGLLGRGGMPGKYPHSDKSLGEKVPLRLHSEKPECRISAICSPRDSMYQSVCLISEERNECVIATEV

Binder	IC50 (recombinant human DLL4)	EC50 (read off the curve) [1]	EC50 (read off the curve) [2]	% inh [3]	binding result (human DLL1)	IC50 [4]	EC50 (read off the curve) [5]	fold (off-rate vs DLLBII101G08) [6]	koff [6]	fold (off-rate vs DLLBII101G08) [7]	koff [7]
DLLBII56A09 (VHH, also called 56A9; DLLBII56A9) VHH: EVQLVESGGGLVQPGGSLRLSCAASGFTFDDYAIGWFRQAPGKEPEGISCISSSGGITYYADSVKGRFTTSRDNAKNTVYLQMNSLKPEDTAVYYCATPGIAACRGIHYTGQGTQVTVSS	1.2 nM	~4 nM									
DLLBII115A05 (VHH, also called 115A5; DLLBII115A5) VHH: EVQLVESGGGLVQPGGSLRLSCAASGFTFGSYDMSWVRRSPGKGPEWVSSINSGGGSTYYADFVKGRFTISRDNAKNTLYLQMNSLKPEDTAVYYCAADRYIRARQGDYWGAYEYDYWGQGTQVTVSS	5 nM	~20 nM	~30 nM	84%	no binding (tested: 5e-7 M)						
DLLBII136C07 (VHH, not shown: small tags and cut ends) VHH: EVQLVESGGGLVQPGGSLRLSCAASGFTFGSYDMSWVRRSPGKGPEWVSSINSGGGSTYYADYVKGRFTISRDNAKNTLYLQMNSLKPEDTAVYYCAADRYIWARQGEYWGAYEYDYWGQGTQVTVSS						11.4 nM					
DLLBII101G08 (VHH, also called 101G8; DLLBII101G8) VHH: EVQLVESGGGLVQAGGSLRLSCAASGRTFSSYAMAWFRQAPGKEREFVAAIRWSGGTAYYADSVQGRFTISRDNAKNTVYLQMNSLKPEDTAVYYCANRAADTRLGPYEYDYWGQGTQVTVSS		~30 nM	~40 nM	92%	no binding (tested: 5e-7 M)						
DLLBII101G08 (VHH, not shown: small tags and cut ends, parent VHH; also called 101G08 (wt); 101G8) VHH: EVQLVESGGGLVQAGGSLRLSCAASGRTFSSYAMAWFRQAPGKEREFVAAIRWSGGTAYYADSVQGRFTISRDNAKNTVYLQMNSLKPEDTAVYYCANRAADTRLGPYEYDYWGQGTQVTVSS							~4 nM	1 fold	0.0022 s⁻¹	1 fold	0.0067 s⁻¹
DLLBII129D08 (VHH, not shown: small tags and cut ends) VHH: EVQLVESGGGLVQAGGSLRLSCAASGRTFSSYAMAWYRQAPGKEREYVAAIRWSGGTAYYADSVQGRFTISRDNAKNTVYLQMNSLKPEDTAVYYCANRAPDTRLEPYLYDYWGQGTQVTVSS							~0.7 nM	38 fold	5.9e-05 s⁻¹	35 fold	0.00019 s⁻¹
DLLBII129E11 (VHH, not shown: small tags and cut ends) VHH: EVQLVESGGGLVQAGGSLRLSCAASGRTFSSYAMAWYRQAPGKEREYVAAIRWSGGTAYYADSVQGRFTISRDNAKNTVYLQMNSLKPEDTAVYYCANRAPDTRLRPYLYDYWGQGTQVTVSS							~0.7 nM	28 fold	8e-05 s⁻¹	26 fold	0.00025 s⁻¹
DLLBII129B05 (VHH, not shown: small tags and cut ends) VHH: EVQLVESGGGLVQAGGSLRLSCAASGRTFSSYAMAWYRQAPGKEREYVAAIRWSGGTAYYADSVQGRFTISRDNAKNTVYLQMNSLKPEDTAVYYCANRAPDTRLAPYEYDHWGQGTQVTVSS						8.2 nM	~0.7 nM	24 fold	9.3e-05 s⁻¹	20 fold	0.00034 s⁻¹
